These results are taken from article PMC10197580.

The test addresses T1, CST with the His6-MBP tag cleaved (human), Q2NKJ3.
T1 chain 1: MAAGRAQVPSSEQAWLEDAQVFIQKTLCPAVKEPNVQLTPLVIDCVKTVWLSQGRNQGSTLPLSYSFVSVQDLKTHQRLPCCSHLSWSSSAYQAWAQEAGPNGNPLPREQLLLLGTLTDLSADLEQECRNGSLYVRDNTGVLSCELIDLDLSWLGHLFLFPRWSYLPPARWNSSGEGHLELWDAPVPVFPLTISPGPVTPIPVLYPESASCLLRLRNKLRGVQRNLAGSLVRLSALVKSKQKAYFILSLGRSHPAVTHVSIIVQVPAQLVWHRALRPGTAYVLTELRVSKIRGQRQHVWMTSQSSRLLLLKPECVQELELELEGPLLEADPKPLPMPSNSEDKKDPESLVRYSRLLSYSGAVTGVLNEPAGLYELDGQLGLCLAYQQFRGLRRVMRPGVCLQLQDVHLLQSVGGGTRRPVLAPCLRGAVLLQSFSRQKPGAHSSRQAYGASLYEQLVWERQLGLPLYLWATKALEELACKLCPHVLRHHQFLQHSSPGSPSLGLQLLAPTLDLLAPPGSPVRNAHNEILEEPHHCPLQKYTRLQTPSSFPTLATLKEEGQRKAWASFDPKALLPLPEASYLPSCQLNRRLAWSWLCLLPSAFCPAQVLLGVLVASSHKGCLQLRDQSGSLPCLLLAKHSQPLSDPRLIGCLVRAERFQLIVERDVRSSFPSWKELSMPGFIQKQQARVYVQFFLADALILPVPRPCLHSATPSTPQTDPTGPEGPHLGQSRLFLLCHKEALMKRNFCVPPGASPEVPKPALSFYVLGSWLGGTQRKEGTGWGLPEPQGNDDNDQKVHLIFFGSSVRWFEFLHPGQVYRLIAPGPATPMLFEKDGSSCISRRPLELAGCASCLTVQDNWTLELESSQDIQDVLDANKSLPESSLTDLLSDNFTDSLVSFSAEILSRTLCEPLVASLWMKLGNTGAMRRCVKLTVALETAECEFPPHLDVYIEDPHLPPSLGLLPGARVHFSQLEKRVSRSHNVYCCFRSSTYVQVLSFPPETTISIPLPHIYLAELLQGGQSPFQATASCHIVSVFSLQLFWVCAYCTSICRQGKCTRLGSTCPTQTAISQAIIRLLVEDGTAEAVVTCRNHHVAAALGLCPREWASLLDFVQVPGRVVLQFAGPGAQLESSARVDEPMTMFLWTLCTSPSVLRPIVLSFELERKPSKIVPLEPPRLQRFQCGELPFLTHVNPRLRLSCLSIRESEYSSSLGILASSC
T1 chain 2: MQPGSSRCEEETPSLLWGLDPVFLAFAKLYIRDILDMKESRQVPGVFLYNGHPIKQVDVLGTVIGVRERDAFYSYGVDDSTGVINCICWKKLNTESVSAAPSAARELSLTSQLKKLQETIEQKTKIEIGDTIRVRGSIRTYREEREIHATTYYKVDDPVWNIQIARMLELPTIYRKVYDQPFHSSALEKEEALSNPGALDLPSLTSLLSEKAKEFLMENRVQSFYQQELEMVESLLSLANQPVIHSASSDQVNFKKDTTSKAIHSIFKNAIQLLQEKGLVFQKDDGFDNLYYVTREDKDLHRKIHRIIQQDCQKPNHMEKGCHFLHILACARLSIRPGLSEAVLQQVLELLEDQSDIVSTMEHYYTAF
T1 chain 3: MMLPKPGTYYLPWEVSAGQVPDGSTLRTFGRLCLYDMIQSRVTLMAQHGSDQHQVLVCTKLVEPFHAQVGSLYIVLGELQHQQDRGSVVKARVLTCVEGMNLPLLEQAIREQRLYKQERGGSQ
Briefly: negative-stain EM. As to conditions: remark: other sources report otherwise.

B1: CST with the His6-MBP tag cleaved, Q2NKJ3;Q9H668;Q86WV5 (complex)
chain 1: MAAGRAQVPSSEQAWLEDAQVFIQKTLCPAVKEPNVQLTPLVIDCVKTVWLSQGRNQGSTLPLSYSFVSVQDLKTHQRLPCCSHLSWSSSAYQAWAQEAGPNGNPLPREQLLLLGTLTDLSADLEQECRNGSLYVRDNTGVLSCELIDLDLSWLGHLFLFPRWSYLPPARWNSSGEGHLELWDAPVPVFPLTISPGPVTPIPVLYPESASCLLRLRNKLRGVQRNLAGSLVRLSALVKSKQKAYFILSLGRSHPAVTHVSIIVQVPAQLVWHRALRPGTAYVLTELRVSKIRGQRQHVWMTSQSSRLLLLKPECVQELELELEGPLLEADPKPLPMPSNSEDKKDPESLVRYSRLLSYSGAVTGVLNEPAGLYELDGQLGLCLAYQQFRGLRRVMRPGVCLQLQDVHLLQSVGGGTRRPVLAPCLRGAVLLQSFSRQKPGAHSSRQAYGASLYEQLVWERQLGLPLYLWATKALEELACKLCPHVLRHHQFLQHSSPGSPSLGLQLLAPTLDLLAPPGSPVRNAHNEILEEPHHCPLQKYTRLQTPSSFPTLATLKEEGQRKAWASFDPKALLPLPEASYLPSCQLNRRLAWSWLCLLPSAFCPAQVLLGVLVASSHKGCLQLRDQSGSLPCLLLAKHSQPLSDPRLIGCLVRAERFQLIVERDVRSSFPSWKELSMPGFIQKQQARVYVQFFLADALILPVPRPCLHSATPSTPQTDPTGPEGPHLGQSRLFLLCHKEALMKRNFCVPPGASPEVPKPALSFYVLGSWLGGTQRKEGTGWGLPEPQGNDDNDQKVHLIFFGSSVRWFEFLHPGQVYRLIAPGPATPMLFEKDGSSCISRRPLELAGCASCLTVQDNWTLELESSQDIQDVLDANKSLPESSLTDLLSDNFTDSLVSFSAEILSRTLCEPLVASLWMKLGNTGAMRRCVKLTVALETAECEFPPHLDVYIEDPHLPPSLGLLPGARVHFSQLEKRVSRSHNVYCCFRSSTYVQVLSFPPETTISIPLPHIYLAELLQGGQSPFQATASCHIVSVFSLQLFWVCAYCTSICRQGKCTRLGSTCPTQTAISQAIIRLLVEDGTAEAVVTCRNHHVAAALGLCPREWASLLDFVQVPGRVVLQFAGPGAQLESSARVDEPMTMFLWTLCTSPSVLRPIVLSFELERKPSKIVPLEPPRLQRFQCGELPFLTHVNPRLRLSCLSIRESEYSSSLGILASSC
chain 2: MQPGSSRCEEETPSLLWGLDPVFLAFAKLYIRDILDMKESRQVPGVFLYNGHPIKQVDVLGTVIGVRERDAFYSYGVDDSTGVINCICWKKLNTESVSAAPSAARELSLTSQLKKLQETIEQKTKIEIGDTIRVRGSIRTYREEREIHATTYYKVDDPVWNIQIARMLELPTIYRKVYDQPFHSSALEKEEALSNPGALDLPSLTSLLSEKAKEFLMENRVQSFYQQELEMVESLLSLANQPVIHSASSDQVNFKKDTTSKAIHSIFKNAIQLLQEKGLVFQKDDGFDNLYYVTREDKDLHRKIHRIIQQDCQKPNHMEKGCHFLHILACARLSIRPGLSEAVLQQVLELLEDQSDIVSTMEHYYTAF
chain 3: MMLPKPGTYYLPWEVSAGQVPDGSTLRTFGRLCLYDMIQSRVTLMAQHGSDQHQVLVCTKLVEPFHAQVGSLYIVLGELQHQQDRGSVVKARVLTCVEGMNLPLLEQAIREQRLYKQERGGSQ
Regarding B1, the stoichiometry N (as a rule, a count of units in the complex or per binding partner) came out at 2.
